Measurements taken from patent US20250277788A1 (GUIZHOU MEDICAL UNIVERSITY, published 2025).

Experiments:
[1] = biological target: T1, recombinant SARS-COV-2 N protein (SARS-COV-2, UniProt P0DTC9 1-419); assay: SPR (UA Biotech); orientation not stated
T1 construct: also called nucleocapsid protein

[2] = biological target: T1, recombinant SARS-COV-2 N protein; assay: direct ELISA, N protein coated at 5 µg/mL, pNPP colour development
[3] = biological target: T1, recombinant SARS-COV-2 N protein; assay: direct ELISA, N protein coated at 5 µg/mL, pNPP colour development for 90 min

Row | Binder | Kd [1] | koff [1] | kon [1] | fold of OD405 nm over control group (blank blocked wells) [2] | fold of OD405 nm over control group (blank blocked wells) at 90 min [3]
1 | SARS-COV-2 N protein-specific single-chain antibody H6 (scFv, V domains shown, also called H6 antibody; scFv H6; not shown: C-terminal tags from the pHENHi vector (c-myc and a His tag, with the NotI junction)) VH: EVKLAESGPELVRPGVSVKISCKGSGYTFTDYPMHWVKQSHAKSLEWIGVISTYSGNTNYNQKFRGKATMTVDKSSSTAYMELARLTSEDSAIYYCTRGGNYGFDPWGQGTTLTVSS | 0.298 nM | 0.000286 s⁻¹ | 958000 M⁻¹ s⁻¹ | – | –
2 | H6-AP fusion protein (single-chain antibody H6 fused to alkaline phosphatase) (other, also called fusion protein H6-AP) MAEVKLAESGPELVRPGVSVKISCKGSGYTFTDYPMHWVKQSHAKSLEWIGVISTYSGNTNYNQKFRGKATMTVDKSSSTAYMELARLTSEDSAIYYCTRGGNYGFDPWGQGTTLTVSSAKTTAPSVGGGGSGGGGSGGGGSDIQMTQSHKFLSTSVGDRVNITCKASQDVGTAVAWYQQKPGQSPKLLIYWASTRHTGVPDRFTGSGSGTDFTLTITNVQSEDLAEYFCQQYSSYPLTFGSGTKIEMKRAVDSSGSTSGSGKPGSGEGSTAAAARAPEMPVLENRAAQGDITAPGGARRLTGDQTAALRDSLSDKPAKNIILLIGDGMGDSEITAARNYAEGAGGFFKGIDALPLTGQYTHYALNKKTGKPDYVTSSAASATAWSTGVKTYNGALGVDIHEKDHPTILEMAKAAGLATGNVSTAELQDATPAALVAHVTSRKCYGPSATSEKCPGNALEKGGKGSITEQLLNARADVTLGGGAKTFAETATAGEWQGKTLREQAQARGYQLVSDAASLNSVTEANQQKPLLGLFADGNMPVRWLGPKATYHGNIDKPAVTCTPNPQRNDSVPTLAQMTDKAIELLSKNEKGFFLQVEGASIDKQDHAANPCGQIGETVDLDEAVQRALEFAKKEGNTLVIVTADHAHASQIVAPDTKAPGLTQALNTKDGAVMVMSYGNSEEDSQEHTGSQLRIAAYGPHAANVVGLTDQTDLFYTMKAALGDIAHHHHHH | – | – | – | 16 fold | 31 fold
